Laboratory results taken from patent publication US11827690B2, “ApoC-II mimetic peptides” (THE UNITED STATES OF AMERICA, as represented by the …, priority 2017, dated 2023).
Non-standard residues stand in square brackets, D forms with d. No end group written: not given here. Nle = CCCC[C@H](N)C(=O)O

Assays:
bovine LPL [1] = biological target: T1, bovine LPL (Bos taurus, UniProt P11151); assay: in vitro LPL assay using Intralipid as substrate; format: biochemical; conditions: concentrations of between about 1 nM to about 10 μM, FIG. 7
T1 sequence (P11151 29-478): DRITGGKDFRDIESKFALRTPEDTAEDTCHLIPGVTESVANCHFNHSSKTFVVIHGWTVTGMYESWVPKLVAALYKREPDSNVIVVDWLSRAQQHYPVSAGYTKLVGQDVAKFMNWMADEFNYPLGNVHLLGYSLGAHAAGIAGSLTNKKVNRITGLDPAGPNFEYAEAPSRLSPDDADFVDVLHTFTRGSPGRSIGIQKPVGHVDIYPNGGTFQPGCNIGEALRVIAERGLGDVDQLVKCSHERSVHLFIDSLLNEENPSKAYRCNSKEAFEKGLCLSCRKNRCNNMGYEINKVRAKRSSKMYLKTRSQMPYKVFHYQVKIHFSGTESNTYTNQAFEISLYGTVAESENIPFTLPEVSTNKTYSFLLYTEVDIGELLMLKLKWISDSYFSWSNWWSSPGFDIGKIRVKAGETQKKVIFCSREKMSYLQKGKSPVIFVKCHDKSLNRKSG
Protocol: (§1) Preparation of LPL: frozen stock of 10 μL of 0.5 mg/mL bovine LPL was used and diluted 1:100 (10 μL+990 μL of PBS).
(§2) Preparation of 20% Intralipid: 2000 mg/dL TG Intralipid was used to prepare 3 mg/dL TG Intralipid by diluting 1.5 μL of the stock with 998.5 μL PBS, or by diluting the stock 1:10 first and then mixing 15 μL of the diluted stock with 985 μL PBS. When apoC-II deficient human serum was used as a substrate, a frozen 10 μL aliquot of 1711 mg/dL (TG) was diluted by adding 990 μL PBS (1:100 dilution).
(§3) Preparation of free fatty acid (NEFA) assay: NEFA reagents were purchased from Wako Diagnostics, Wako Life Sciences, Inc. Reagent A was prepared by mixing Coloring Reagent A with Solvent A (225 μL per well). Reagent B was prepared by mixing Coloring Reagent B with Solvent B (75 μL per well). 5 nmoL oleic acid standard was prepared by diluting 20 μL of 1 mM oleic acid stock (WAKO NEFA standard solution) with 180 μL of 0.2% BSA.
LPL activity assay: 10 μL of Intralipid, human plasma sample, or mouse plasma sample was added in each well using repeater pipette. 10 μL (or 15 μL in the wells with no LPL control) of PBS and 10 μL of 1% BSA was added in each well using repeater pipette. […]
Free fatty acids (NEFA) assay: 45 μL of 5 nmoL standard and 0 nmoL control (0.2% BSA) were added to corresponding wells. […] The absorbance at 550 nm and 660 nm was measured.

apoC-II knockout mice = assay: plasma lipids of apoC-II knockout mice after peptide injection; format: in vivo
Protocol: (§4) C57Bl/6 mice (wild-type), apoC-II knockout (apoC-II KO) mice, and apoC-III transgenic mice were used for in vivo study. The C57Bl/6 mice (wild-type) were purchased from Taconic Biosciences Inc. The apoC-II KO mice were created as described in Sakurai et al., J Pharmacol Exp Ther 356:341-353, 2016. The apoC-III transgenic mice were generated by overexpressing human apoC-III in C57Bl/6 mice. See Qu et al., J. Lipid Res. 48:1476-1487, 2007.
Mice were fasted overnight (approximately 12 hours) before the study and 6 hours during the study, the next day. The apoC-II mimetic peptides were synthetically produced and free of biological contamination (not available as FDA approved compounds/treatment). […] W.) administered either subcutaneous injection (S.Q. or S.C.), intraperitoneal injection (I.P.) or intravenous injection (I.V.) (in a sterile, pharmaceutical grade PBS solution at a volume ≤200 μL) as described in Sakurai et al., J Pharmacol Exp Ther 356:341-353, 2016.

bovine LPL [2] = biological target: T1, bovine LPL; assay: in vitro LPL assay using apoC-II deficient patient sera as substrate; format: biochemical; conditions: for promoting TG hydrolysis in the presence of LPL / efficiency compared with native apoC-II protein: FIG. 6; for efficiency compared with native apoC-II protein: at lower concentrations
Protocol: as §1, §2, §3
(§5) LPL activity assay: 10 μL of Intralipid, human plasma sample, or mouse plasma sample was added in each well using repeater pipette. 10 μL (or 15 μL in the wells with no LPL control) of PBS and 10 μL of 1% BSA was added in each well using repeater pipette. 10 μL of peptides were added to corresponding wells in vertical triplicates (lowest concentration is on a left, highest is on the right). The plate was spun down at 1000 RPM for 10 seconds to mix and to remove the solutions from the wall of each well. The plate was put on ice and 5 μL of LPL was added using repeater pipette. The plate was spun down again at 1000 RPM for 10 seconds. The plate was covered and put back on ice for an incubation of 30 min. The plate was then moved to 37° C. and incubated for 1 hour.
(§6) Free fatty acids (NEFA) assay: 45 μL of 5 nmoL standard and 0 nmoL control (0.2% BSA) were added to corresponding wells. 225 μL of reagent A was added in each well using the reagent tray and 12-channel pipette. The plate was incubated for 10 min before 75 μL of reagent B was added to each well using the reagent tray and 12-channel pipette. The plate was not covered due to the high volume. The absorbance at 550 nm and 660 nm was measured.

C57BL/6 mice (wild-type) = assay: post-prandial serum TG in C57BL/6 mice after oral gavage with vegetable oil; format: in vivo; conditions: intraperitoneally injected 30 min before gavage, FIG. 20
Protocol: as §4
Mice were fasted overnight (approximately 12 hours) before the study and 6 hours during the study, the next day. The apoC-II mimetic peptides were synthetically produced and free of biological contamination (not available as FDA approved compounds/treatment). Peptides were produced and used in sterile conditions and filtered by 0.2 nm filter before injections in a single dose 1-10 μmol/kg body weight (B. W.) administered either subcutaneous injection (S.Q. or S.C.), intraperitoneal injection (I.P.) or intravenous injection (I.V.) (in a sterile, pharmaceutical grade PBS solution at a volume ≤200 μL) as described in Sakurai et al., J Pharmacol Exp Ther 356:341-353, 2016.
In some experiments, each animal received 20% Intralipid (FDA approved, Fresenius Kabi, Uppsala, Sweden) in a single dose either by oral gavage (using special sterile single-use non-toxic animal feeding needles) in a dose 10-20 μL/gram body weight (B.W.) (Tuzcu et al. Drug Chem Toxicol 37: 261-267, 2014; Kusminski et al. Nature Medicine 18: 1539-1549, 2012), or by intraperitoneal injection in a single bolus of 0.1-1.0 mL (Mahadero et al. American J Surgery 164: 45-50, 1992), or by intragastric administration of a dietetic commercially-available liquid oil (food grade vegetable, corn, soy or olive oil) in a single dose 10-20 μL/gram body weight. These oils were a source of TG—when absorbed TG tends to be broken down within 3 h (peak in 30 min) (Kritchevsky Nutritional Biochemistry 6:172-178, 1995). Blood samples (20-30 μL) were obtained from the retro-orbital plexus at time points: −1 h, 0 h, 1 h, 3 h, 6 h and 24 h for measurements of lipids. Mice were returned to metabolic cages after the 6 h time point where the food was put back. Once the study was completed (after 24 hours from the fat administration), mice were euthanized and organs collected.

bovine LPL [3] = biological target: T1, bovine LPL; assay: in vitro LPL assay using hypertriglyceridemia patient sera as substrate; format: biochemical; conditions: for LPL activity: sera of patients with high levels of apoC-III protein, FIG. 27
Protocol: as §1, §3, §5, §6

[4] = biological target: T2, LPL inhibited by apoC-III (Bos taurus, UniProt P11151); assay: LPL assay using human apoC-II deficient plasma as substrate with recombinant apoC-III; format: biochemical
T2 sequence (P11151 29-478): T1 sequence (P11151 29-478)
Protocol: as §5, §6
(§7) LPL assay was performed using Intralipid, high TG human plasma (1:50 dilution), or apoC-III transgenic mouse plasma (1:50 dilution). When Intralipid was used as a substrate, 25 or 50 μM recombinant ApoC-III was added as an inhibitor. When the high TG human plasma was used as a substrate, 25 or 50 μM recombinant ApoC-III was added as an inhibitor with or without pre-incubation at 37° C. for 1 hour. An apoC-II mimetic peptide was added at various concentrations.

[5] = tested on: VLDL isolated from human plasma; assay: ApoC-III displacement study in VLDL isolated from human plasma; format: binding
Protocol: VLDL or chylomicrons isolated from human plasma were incubated with an apoC-II mimetic peptide for 1 hour at 37° C. and washed 3 times with PBS using spin filter with 100 kDa cutoff membrane. […] ApoC-I, apoC-II, apoC-III, and apoE bands were identified by their corresponding size.

[6] = tested on: chylomicrons isolated from human plasma; assay: ApoC-III displacement study in chylomicrons isolated from human plasma; format: binding
Protocol: VLDL or chylomicrons isolated from human plasma were incubated with an apoC-II mimetic peptide for 1 hour at 37° C. and washed 3 times with PBS using spin filter with 100 kDa cutoff membrane. Supernatants were brought to the original volume with PBS and loaded to 4-12% Bis-TRIS SDS PAGE gel. ApoC-I, apoC-II, apoC-III, and apoE bands were identified by their corresponding size.

[7] = biological target: T2, LPL inhibited by apoC-III; assay: LPL activation assay with Intralipid as substrate and recombinant apoC-III as an inhibitor; format: biochemical; conditions: Intralipid substrate, FIG. 31
Protocol: as §5, §6, §7

[8] = biological target: T2, LPL inhibited by apoC-III; assay: LPL activation assay with high TG human plasma as substrate and recombinant apoC-III as an inhibitor; format: biochemical; conditions: 50 μM apoC-III added; from about 3.2 μM without; plasma 1:50 dilution
Protocol: as §5, §6, §7

## DYLKAVFEKLRDLYSKFTAAnLSTYTGIFTDQVLSVLKGEE (DYLKAVFEKLRDLYSKFTAA[Nle]STYTGIFTDQVLSVLKGEE) [Delta4]
Bovine LPL [1]
  efficiency compared with native apoC-II protein: worked more efficiently than the native apoC-II protein
apoC-II knockout mice; intraperitoneal injection
  plasma TG: marked reduction of plasma TG
  total cholesterol level: decrease in total cholesterol level
apoC-II knockout mice; intraperitoneal injection, FIG. 18
  time of maximum decrease of plasma TG: about 3 hours
apoC-II knockout mice; subcutaneous injection
  plasma TG: rapid and marked reduction of plasma TG
  total cholesterol level: decrease in total cholesterol level
Bovine LPL [2]
  promoting TG hydrolysis in the presence of LPL: capable of promoting TG hydrolysis in the presence of LPL
  efficiency compared with native apoC-II protein: worked more efficiently than the native apoC-II protein
Bovine LPL [2]; concentrations from 100 pM to 10 μM, FIG. 12
  TG hydrolysis: promoted TG hydrolysis in a dose-dependent manner
C57BL/6 mice (wild-type)
  serum TG increase after vegetable oil gavage: the TG increase was significantly reduced
Bovine LPL [3]
  LPL activity: increased the LPL activity

## DYLKEVFEKLRDLYEKFTAAnLSTYTGIFTDQVLSVLKGEE (DYLKEVFEKLRDLYEKFTAA[Nle]STYTGIFTDQVLSVLKGEE) [Delta6]
apoC-II knockout mice; 0.25, 0.5, and 1 μmol/kg of body weight intraperitoneally, all doses, FIG. 23
  plasma TG: rapid and marked reduction of plasma TG
apoC-II knockout mice; intraperitoneal injection
  plasma TG: rapid and marked reduction of plasma TG
  total cholesterol level: decrease in the total cholesterol level
[4]; 25 μM apoC-III, FIG. 50
  effect on inhibition of LPL by apoC-III: overcame the inhibitory effect of apoC-III and facilitated lipolysis
[5]
  affinity for the VLDL compared with the apolipoproteins: higher affinity
[5]; SDS PAGE
  apoC-III displacement in VLDL: capable of displacing apoC-III
Bovine LPL [2]; 10 pM to 10 μM, FIG. 51
  LPL activation compared with full length apoC-II protein: activated LPL in vitro more efficiently than the full length apoC-II protein
Bovine LPL [2]
  promoting TG hydrolysis in the presence of LPL: capable of promoting TG hydrolysis in the presence of LPL
  efficiency compared with native apoC-II protein: worked more efficiently than the native apoC-II protein
Bovine LPL [2]; concentrations from 100 pM to 10 nM, FIG. 14
  TG hydrolysis: exhibited the ability to promote TG hydrolysis in a dose dependent matter
Bovine LPL [3]; patient sera TG about 1000 mg/dL to about 1700 mg/dL, FIGS. 15A-D
  LPL activation: activated LPL in vitro
Bovine LPL [3]
  LPL activity: increased the LPL activity
[6]
  affinity for chylomicrons compared with the apolipoproteins: higher affinity

## DYLKEVFEKLRDLYSKFTAAnLSTYTGIFTDQVLSVLKGEE (DYLKEVFEKLRDLYSKFTAA[Nle]STYTGIFTDQVLSVLKGEE) [Delta5]
Bovine LPL [1]
  efficiency compared with native apoC-II protein: worked more efficiently than the native apoC-II protein
Bovine LPL [2]
  promoting TG hydrolysis in the presence of LPL: capable of promoting TG hydrolysis in the presence of LPL
  efficiency compared with native apoC-II protein: worked more efficiently than the native apoC-II protein

## apoC-III recombinant protein: recombinant ApoC-III added as an inhibitor in the LPL assay
[7]
  effect on production of free fatty acid (NEFA): inhibited the production of free fatty acid (NEFA)
[4]; 25 μM apoC-III added, from about 1.5 μM without
  free fatty acid (NEFA) production: about 0.8 μM
[8]
  free fatty acid (NEFA) production: about 1.7 μM
